Measurements published in the supplement of paper PMC12764529.
± gives the half width of the 95% confidence interval.

Assay: folding stability dG unfold from chymotrypsin proteolysis; higher = more stable
In short: (§1)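 Sequencing followed digestion of designed mini-proteins with trypsin and chymotrypsin, each at 11 concentrations in threefold dilutions together with a no-protease condition. The mini-proteins were under 80 residues, had no cysteine, sat in a PA-tagged cDNA display construct, and were kept only if AlphaFold2 dimer inter-PAE was above 15. From the counts, Bayesian fitting gave K50, and unfolding free energy was derived against a sequence-predicted unfolded-state K50 and a shared folded-state K50, per protease or combined.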

Row | Sequence | folding stability dG unfold [kcal/mol]
1 | SEPWELVEERELPPNAVITFPNGEKLEIDPEKARVRVWRRPDSVRVLVVLKDGTVLEFEFYAPPRVTDDDSA [r9_348_TrMRF] | 2.58 ± 0.033
2 | SAGGSAGGSWKIVEIEVQRFPDGMYMVEIRFPDHGMPVTVHIDPPKNKITIYFPNGRSIEIPFSAGGSAGGS [r12_88_TrROS] | 4.22 ± 0.089
3 | SSSVSVTRTRDPRTGRLVVTVSMNYEDDPEEAVEAAKALLEAAGLDVAEVLSITVDPSTGTVTIPIAVAPSA [r9_876_JUSTAS] | 3.15 ± 0.076
4 | SAGGSAGGSAMPEPVLIVVEVESLEEAKKLAEELAVEGVKVEVDPESGLVKIEIEKESLLESAGGSAGGSAG [r3_186_TrMRF] | 1.23 ± 0.08
5 | SAGGSAGGMTKTEVTVTVEKVPDGTYVVKTTKTTTTTNPDGTLTSSTTTTTKTVTPEELAAVLASAGGSAGG [r6_974_JUSTAS] | 2.86 ± 0.044
6 | SANGEMTMMFEFEIFFPGLGYRGKIYVMMRIEPTPNQIRIDLMIMIEIEPIPPPPPKVPPEQNPEDADDSAG [r14_435_TrROS] | 5.18 ± 0.2
7 | SAGGSMALVEIERPGGEGALRTVDTSNPAAVKAFVDAVPEDEPVRVYTDDPAVVELFKEAGFDEVLLESAGG [r13_476_JUSTAS] | 0.775 ± 0.087
8 | SAGGSAGGGSISIPGPGPVSATTDPVTKTLVTVTYPTSEVRIPIEGDKFTEAETTPLPPPPALTSAGGSAGG [r6_847_JUSTAS] | 1.08 ± 0.036
9 | SAGGSAGGSEAKIELEYDEETNTLTVRIEVDGELYEERIEVTIEPAPPPPPPVEVVVVELPEESAGGSAGGS [r12_70_TrROS_Hall] | 2.71 ± 0.21
10 | SAGGVKEIEIPNGMRITDVDPPDGYWKIKIENPDNGKEVERPIPPGDKLKIPPNAPVTITEIEPYPPSAGGS [r16_123_TrROS] | -0.103 ± 0.48
11 | SAGGSAGGSAQPIPIKIRIRMRDDGKPQTFTFEVPVKPGATESTILDKIMKKFPGFRHIEIESAGGSAGGSA [r18_195_TrROS] | 0.961 ± 0.066
12 | SAGGSMSPALNKKLDVEEITADEEEAKKIAKESKKPVIVTLPDGTVLRFNTDGSVTEYPLPPPELLSAGGSA [r2_34_JUSTAS] | 1.12 ± 0.12
13 | SAGGSEVKIVKIESVEIEEENGFLRIKVRATLKFYDKETGELVEEKEVELEVTLKNGKKLTFKIKASAGGSA [r2_271_TrROS_Hall] | 3.12 ± 0.086
14 | SAPKRYYIKIEIYDNGKKQEITIPIGATIKNPGGKEYTYPVDSPEDLEEALNDLFPPGFPIKIDDVHPPSAG [r14_41_TrROS] | 1.21 ± 0.17
15 | SAGGSIEELAEELARRFAEENGAAEVRVEVEGLPDNTVLVRVYVRGPDGELLGVVDALIPVPEDELSAGGSA [r2_153_TrMRF] | 2.09 ± 0.062
16 | SAGGMTIVEKDGKLVLKITVTVPPGTTVEELKNALKELFGVEEVKVVKIEKNENGEITITVEAVFPKSAGGS [r16_234_TrROS_Hall] | 3.31 ± 0.13
17 | SAGGSAGGSAMVITKTTASVEEVKEEIKKEYPNANVKITKVSTSADGKTTYKIEIKIPKNNKSAGGSAGGSA [r18_464_JUSTAS] | 2.5 ± 0.033
18 | SAGGSAGGSAGGWIRNKDGKPVKLEIYPFPVEMWMYRKKPDGGWEPHPMRMPFTFIRITPSAGGSAGGSAGG [r7_90_TrROS] | 1.55 ± 0.11
19 | SAGGSAGGSAGSMSVSVTKLPNGDYVVTTTTSETSTSTTGSTPVTTTTTTTTVTTLPSSSSAGGSAGGSAGG [r17_432_JUSTAS] | 0.775 ± 0.023
20 | SAGGSSPELAAERLAEELRRQGYAVREVVVTYDPAGTVTVSAVIEDPADPAATSTLTVTVPLAELGSAGGSA [r2_384_JUSTAS] | 2.91 ± 0.024
21 | SAGGSAGGSAGGMPVEVTTLETRKDPAGTTTEITLDPKTGRTIIVTKYPNGGSETTVVESAGGSAGGSAGGS [r10_1118_JUSTAS] | 0.504 ± 0.065

Assay: folding stability dG unfold from trypsin proteolysis; higher = more stable
In short: as §1

Row | Sequence | folding stability dG unfold [kcal/mol]
22 | SAGGKTISIEFYMPPGEPPPSIEEIAKELFPGYKDIKIKNIEIEDVEPDPDNGMKYVRVSFTIEVEPPSAGG [r13_10_TrROS] | 3.25 ± 0.27
23 | SAGSSAVEVDIDEELKEKLKKLIDPDKPIEITRLKTTTNETIILITEKGSGKKYIFTRNKEGKIEIKKSAGG [r19_70_JUSTAS] | 2.07 ± 0.061
24 | SAGGSAGGSMKIPEDETYEEKLPDGRKVTYTWEPESGLLKTTTTDPNNDTPTTSTYKVPPSSLLSAGGSAGG [r6_407_JUSTAS] | 0.0466 ± 0.2
25 | SAGGSAMKITITVEKKEDGTYRVTIEIDGKKIEIEMSVEDLKKKLEELAKELFPDKPIKVEVKPVPSAGGSA [r15_925_TrROS_Hall] | 2.87 ± 0.13
26 | SAGLKVRIRTKDGREIEIEVSEEEAERLVKELEDAGFTVERVEVEELEPEEEKEELEEEERELKEELEESAG [r5_645_TrROS_Hall] | 3.28 ± 0.27
27 | SAGGSAGGSAGGKTYKITVSSGDTYLTISIELPDGLVLTYKITPNSIEVEIKPLKDFNESAGGSAGGSAGGS [r10_1169_TrMRF] | 3.42 ± 0.19
28 | SAGGSAGGSAGKVVVDFGKPALAEAFGVPLSEIENMSEEEALALAKPLVEEGVVDEVVLSSAGGSAGGSAGG [r11_80_TrMRF] | 1.26 ± 0.048
29 | SAGGSAGGKLKINNEEIGPDKSFPLKKGKEIKVYKDYVKVFVIDPKTNKKKEYTIKLEDLKKLFSAGGSAGG [r6_940_TrMRF] | 0.437 ± 0.073
30 | SAGGSAGGSKGVKELVIVVPPDKPEKIEEFLKKLRDEYAKDIKVLEVKETPDGGYIAKIKITDSAGGSAGGS [r12_91_TrMRF] | 1.4 ± 0.041
31 | SNYINEPIYVPPSVDPEEVKKKVEERVEEIKKKLGLPPNISVSVTPVALPEGSVTYRVTVTVDGETYNSSSA [r9_776_JUSTAS] | 0.77 ± 0.1
32 | SAGGSAGGSLSLPEGFKLSSLVSVEELPGVLRIYFLDPEKPLLYEVVYDLETGEQTVERIPIGSAGGSAGGS [r12_206_JUSTAS] | 2.43 ± 0.065
33 | SAGGSAGGMILIKNEDGSLYLIEVETVTVTVKVKLPEELKELLKGIKPGDTITVTVTKVRIVKLSAGGSAGG [r6_907_TrROS_Hall] | 3.79 ± 0.15
34 | SAGGSAGGSAGGMTKLEPLATEPNPLKVLTKVTTTDPVTGKPKTTIVETEIPVPESELGSAGGSAGGSAGGS [r10_846_JUSTAS] | 0.0416 ± 0.06
35 | SAGGSAGGSAEELVKYLAKEHGHPPGKEVTIPFDNWMIKIRYNNDGVPVGVEIKPMPPDDMSAGGSAGGSAG [r3_468_TrROS] | 0.717 ± 0.025
36 | SAGGWITVNQIRDLAKELPPGWRIKIKIEYPGKKHEHTIPPGDPITIPPNMPPEDITRIEITEIEPYSAGGS [r16_97_TrROS] | 0.476 ± 0.062
37 | SAGGSAGGDEIADKVKDLLRKHGWPVKEVEVTVMPHPPGRVYVMIEITMEHPGKKWTMEIMVEVSAGGSAGG [r6_533_TrROS] | 3.15 ± 0.14
38 | SAGGSADRVTVTVTVRVRDPATGEWREVTETVTVPAPLTLEITLPPGWRLRLTLEDGELRLEVEPESAGGSA [r2_109_TrROS_Hall] | 3.1 ± 0.096
39 | SAGGSAGGSAGGSLPLILRLAEENGFSVSAVPIPETGTYKAVVTLPDGKPITIELPLTLSAGGSAGGSAGGS [r4_121_TrMRF] | 0.295 ± 0.12
40 | SAGGSAGMTITSATEVGTTTFNGGSITHYTLTTPSGKTITGEVDPATGTLTISFPETGLSITIPPKSAGGSA [r15_159_JUSTAS] | 1.09 ± 0.023
41 | SSPANITTTTTSSPLNLETFDPKTGKKKRINYTLTTETVTFPGGEVVTTTVLKDASTGKVTTLSTTVTPTSA [r9_402_JUSTAS] | 0.773 ± 0.081
42 | SAGGKYTFTPAPPNSESEVVKKAEELKKKLAEEPGVDKKIEIEIKPSPDGSLTIKVTFSTGTYDAAASAGGS [r16_356_JUSTAS] | 0.514 ± 0.027

Row | Sequence | folding stability dG unfold [kcal/mol]
43 | SEPWELVEERELPPNAVITFPNGEKLEIDPEKARVRVWRRPDSVRVLVVLKDGTVLEFEFYAPPRVTDDDSA [r9_348_TrMRF] | 2.62 ± 0.074
44 | SAGGSAGGSWKIVEIEVQRFPDGMYMVEIRFPDHGMPVTVHIDPPKNKITIYFPNGRSIEIPFSAGGSAGGS [r12_88_TrROS] | 3.26 ± 0.11
45 | SSSVSVTRTRDPRTGRLVVTVSMNYEDDPEEAVEAAKALLEAAGLDVAEVLSITVDPSTGTVTIPIAVAPSA [r9_876_JUSTAS] | 2.79 ± 0.062
46 | SAGGSAGGSAMPEPVLIVVEVESLEEAKKLAEELAVEGVKVEVDPESGLVKIEIEKESLLESAGGSAGGSAG [r3_186_TrMRF] | 1.03 ± 0.092
47 | SAGGSAGGMTKTEVTVTVEKVPDGTYVVKTTKTTTTTNPDGTLTSSTTTTTKTVTPEELAAVLASAGGSAGG [r6_974_JUSTAS] | 3.7 ± 0.15
48 | SANGEMTMMFEFEIFFPGLGYRGKIYVMMRIEPTPNQIRIDLMIMIEIEPIPPPPPKVPPEQNPEDADDSAG [r14_435_TrROS] | 3.82 ± 0.21
49 | SAGGSMALVEIERPGGEGALRTVDTSNPAAVKAFVDAVPEDEPVRVYTDDPAVVELFKEAGFDEVLLESAGG [r13_476_JUSTAS] | -0.0819 ± 0.053
50 | SAGGSAGGGSISIPGPGPVSATTDPVTKTLVTVTYPTSEVRIPIEGDKFTEAETTPLPPPPALTSAGGSAGG [r6_847_JUSTAS] | -0.16 ± 0.1
51 | SAGGSAGGSEAKIELEYDEETNTLTVRIEVDGELYEERIEVTIEPAPPPPPPVEVVVVELPEESAGGSAGGS [r12_70_TrROS_Hall] | 1.56 ± 0.55
52 | SAGGVKEIEIPNGMRITDVDPPDGYWKIKIENPDNGKEVERPIPPGDKLKIPPNAPVTITEIEPYPPSAGGS [r16_123_TrROS] | -0.613 ± 0.27
53 | SAGGSAGGSAQPIPIKIRIRMRDDGKPQTFTFEVPVKPGATESTILDKIMKKFPGFRHIEIESAGGSAGGSA [r18_195_TrROS] | 1.06 ± 0.035
54 | SAGGSMSPALNKKLDVEEITADEEEAKKIAKESKKPVIVTLPDGTVLRFNTDGSVTEYPLPPPELLSAGGSA [r2_34_JUSTAS] | 0.443 ± 0.07
55 | SAGGSEVKIVKIESVEIEEENGFLRIKVRATLKFYDKETGELVEEKEVELEVTLKNGKKLTFKIKASAGGSA [r2_271_TrROS_Hall] | 3 ± 0.23
56 | SAPKRYYIKIEIYDNGKKQEITIPIGATIKNPGGKEYTYPVDSPEDLEEALNDLFPPGFPIKIDDVHPPSAG [r14_41_TrROS] | 0.517 ± 0.042
57 | SAGGSIEELAEELARRFAEENGAAEVRVEVEGLPDNTVLVRVYVRGPDGELLGVVDALIPVPEDELSAGGSA [r2_153_TrMRF] | 1.94 ± 0.045
58 | SAGGMTIVEKDGKLVLKITVTVPPGTTVEELKNALKELFGVEEVKVVKIEKNENGEITITVEAVFPKSAGGS [r16_234_TrROS_Hall] | 2.59 ± 0.12
59 | SAGGSAGGSAMVITKTTASVEEVKEEIKKEYPNANVKITKVSTSADGKTTYKIEIKIPKNNKSAGGSAGGSA [r18_464_JUSTAS] | 0.586 ± 0.067
60 | SAGGSAGGSAGGWIRNKDGKPVKLEIYPFPVEMWMYRKKPDGGWEPHPMRMPFTFIRITPSAGGSAGGSAGG [r7_90_TrROS] | 1.59 ± 0.049
61 | SAGGSAGGSAGSMSVSVTKLPNGDYVVTTTTSETSTSTTGSTPVTTTTTTTTVTTLPSSSSAGGSAGGSAGG [r17_432_JUSTAS] | 2.21 ± 0.048
62 | SAGGSSPELAAERLAEELRRQGYAVREVVVTYDPAGTVTVSAVIEDPADPAATSTLTVTVPLAELGSAGGSA [r2_384_JUSTAS] | 2.45 ± 0.059
63 | SAGGSAGGSAGGMPVEVTTLETRKDPAGTTTEITLDPKTGRTIIVTKYPNGGSETTVVESAGGSAGGSAGGS [r10_1118_JUSTAS] | 0.788 ± 0.069
